We go through 15 molecules from patent US11299524B2, “KIF13B-derived peptide and method of inhibiting angiogenesis” (THE BOARD OF TRUSTEES OF THE UNIVERSITY OF ILLINOIS, priority 2016, dated 2022).

The half-life is the time in which the quantity being followed falls by half.

Non-standard residues stand in square brackets, D forms with d. Residues, ends and D or L forms follow the SMILES beside them. No end group written: not given here. d2Nal = N[C@H](Cc1ccc2ccccc2c1)C(=O)O; Aib = CC(C)(N)C(=O)O

The conditions of series [1]: cited from earlier work.
The next series has as its target VEGFR2 (Homo sapiens, UniProt P35968). The series is described as follows: pull-down binding assay with endogenous VEGFR2 from HUVEC lysates. As to conditions: HUVEC lysate, anti-VEGFR2 western blot. Also on record: endogenous in cells; host or cells: HUVEC. The text has this: Truncated mutants of KIF13B were expressed in BL21 (DE3) or Rosetta-gami and purified as previously described (Yamada, et al. (2014) J. Cell Sci. 127:4518-30; Yamada, et al. (2007) Biochemistry 46:10039-45).
Using recombinant proteins, the binding sites on KIF13B mediating the interaction with VEGFR2 were identified. KIF13B has a motor, forkhead-associated, membrane-associated guanylate kinase-binding stalk, 2 domains of unknown function (DUFs) (DUF3694), and a proline-rich and cytoskeleton-associated protein glycine-rich domain. The DUFs were identified from amino acid sequence similarity on the Pfam database. It has been previously shown that both domains of DUF3694 directly bind recombinant VEGFR2 in vitro (Yamada, et al. (2007) Biochemistry 46:10039-45). To define the specific peptide sequence inhibiting VEGFR2 trafficking, further analysis of the second DUF3694 domain (DUF2, residues 1112-1281 of KIF13B) was carried out. This was based on stability of this domain and a sequence distinct from binding sites for other cargoes of KIF13B (Horiguchi, et al. (2006) J. Cell Biol. 174:425-436; Hanada, et al. (2000) J. Biol. Chem. 275:28774-2878). DUF2 was divided into 3 parts, DUF2A (residues […]), DUF2B (residues 1168-1216), and DUF2C (residues 1217-1281) and each part was expressed as a recombinant protein in bacteria. VEGFR2 was abundantly expressed in HUVECs; thus, cell lysate from HUVECs was incubated with these recombinant proteins on beads, and VEGFR2 binding was determined using the anti-VEGFR2 antibody.
To identify the minimum binding site on VEGFR2, DUF2C was further truncated (DUF2C1-9) (FIG. 1). […] Stability of the C5 peptide was attributed to the 4-6 C-terminal residues. Accordingly, replacing these C-terminal residues with another a peptide, one or more post-translational modifications, one or more non-natural amino acid residues, a macromolecule such as PEG, or a combination thereof, is expected to stabilize the KAI peptide.
Initially, peptide interaction with VEGFR2 was confirmed using the pull-down assay.
To further define the KIF13B residues involved in binding to VEGFR2, truncations of the DUF2C5 peptide were tested for binding to VEGFR2 (Table 3) and compared to binding of DUF2C5 and peptides flanking this region (FIG. 1).

In series [2] the test system is HUVECs. In words: VEGF-induced capillary network formation on […] in vitro. It counts as cell-based, human. The following applies: truncated mutant expressed by lentivirus in HUVECs. The method, then:
(§1) Collagen invasion assay was performed as previously described (Kang, et al. (2011) J. Biol. Chem. 286:42017-26). In vitro capillary network formation on […] (BD Biosciences, San Jose, Calif.) and scratch wound healing assay were performed as previously described (Humtsoe, et al. (2010) Mol. Cell Biol. 30:1593-1606). Fibrin gel sprouting assay was performed as described by Nakatsu & Hughes ((2008) Methods Enzymol. 443:65-82). VEGF (2.2 nmol/L) stimulation was used for all in vitro angiogenesis assays. Transwell migration assay was performed as described by Kaplan, et al. ((2011) Free Radical Res. 45:1124-35) using VEGF (4.4 nmol/L), sphingosine-1-phosphate (S1P) (1 μmol/L), or basic fibroblast growth factor (bFGF) (50 ng/mL) in the presence or absence of kinesin-derived angiogenesis inhibitor (DUF2C5; residues 1238-1260 of KIF13B) at varying concentrations.
(§2) To test the bioactivity of the truncated mutant of KIF13B, DUF2C was expressed by lentivirus vector in HUVECs. […] The collagen invasion system (Kang, et al. (2011) J. Biol. Chem. 286:42017-42026) was used as another angiogenesis assay to test the peptides. After infection with control lentivirus, FLAG-DUF2C, or FLAG-DUF2, HUVECs were seeded on collagen gels. Cell invasion in response to proangiogenic stimuli SIP and VEGF in the gel was monitored for up to 24 hours.
Bioactivities in two-dimensional capillary network formation assay were assessed in HUVECs expressing KIF13B truncated mutants or vector controls. HUVECs were infected with lentiviruses encoding FLAG-C2, -C3, -C5, -C8, -C9, or vector.
Changes in VEGF-induced network formation assay were assessed in […] plugs. […] VEGF-induced EC sprouting was also determined by 3-dimensional culture of HUVECs on beads (Nakatsu & Hughes (2008) Methods Enzymol. 443:65-82).

Series [3] relates to vessel formation of mouse ECs. In words: […] plug vessel formation assay in mice with lentivirus. It counts as in vivo. The following applies: lentivirus s.c. with MATRIGEL, VEGF, bFGF, heparin; C57BL mice. The method, then: Hematoxylin and eosin staining of […] plug was supplemented with 4.4 nmol/L VEGF, 50 ng/mL of basic fibroblast growth factor, 60 U of heparin, and 0.8×10^8 IFU lentivirus (vector control, DUF2, or DUF2C5, or CT) and injected s.c. in C57BL6 mice. Data are expressed as means±SEM. N=4, 4, 5, and 5 for vector control, DUF2, DUF2C5, and CT, respectively. *P<0.05 (one-way analysis of variance). CT, residues 1528-1826 of KIF13B.
For the […] plug assay used to assess vessel formation of mouse ECs, C57BL6 males (Jackson Laboratory) were used as previously described (Yang & Proweller (2011) J. Biol. Chem. 286:13741-53). […] supplemented with 4.4 nmol/1 VEGF, 50 ng/ml bFGF, 60 U heparin, and 0.8×10^8 IFU of lentivirus was injected subcutaneously into abdomen. Four days after injection, […] was collected.
To address the role of KIF13B in mediating angiogenesis in vivo, the […] plug assay was performed in mice using lentivirus expressing truncated mutants of KIF13B. High titer of lentivirus was injected with […] s.c. into C57BL mice in the presence of VEGF, bFGF, and heparin.

Series [4] concerns HUVECs. In words: collagen invasion assay. Type of series: cell-based, human. The following applies: lentiviral expression; S1P and VEGF; up to 24 hours. The method, then:
as §1, §2

Sequence of VEGFR2 (P35968 20-1356): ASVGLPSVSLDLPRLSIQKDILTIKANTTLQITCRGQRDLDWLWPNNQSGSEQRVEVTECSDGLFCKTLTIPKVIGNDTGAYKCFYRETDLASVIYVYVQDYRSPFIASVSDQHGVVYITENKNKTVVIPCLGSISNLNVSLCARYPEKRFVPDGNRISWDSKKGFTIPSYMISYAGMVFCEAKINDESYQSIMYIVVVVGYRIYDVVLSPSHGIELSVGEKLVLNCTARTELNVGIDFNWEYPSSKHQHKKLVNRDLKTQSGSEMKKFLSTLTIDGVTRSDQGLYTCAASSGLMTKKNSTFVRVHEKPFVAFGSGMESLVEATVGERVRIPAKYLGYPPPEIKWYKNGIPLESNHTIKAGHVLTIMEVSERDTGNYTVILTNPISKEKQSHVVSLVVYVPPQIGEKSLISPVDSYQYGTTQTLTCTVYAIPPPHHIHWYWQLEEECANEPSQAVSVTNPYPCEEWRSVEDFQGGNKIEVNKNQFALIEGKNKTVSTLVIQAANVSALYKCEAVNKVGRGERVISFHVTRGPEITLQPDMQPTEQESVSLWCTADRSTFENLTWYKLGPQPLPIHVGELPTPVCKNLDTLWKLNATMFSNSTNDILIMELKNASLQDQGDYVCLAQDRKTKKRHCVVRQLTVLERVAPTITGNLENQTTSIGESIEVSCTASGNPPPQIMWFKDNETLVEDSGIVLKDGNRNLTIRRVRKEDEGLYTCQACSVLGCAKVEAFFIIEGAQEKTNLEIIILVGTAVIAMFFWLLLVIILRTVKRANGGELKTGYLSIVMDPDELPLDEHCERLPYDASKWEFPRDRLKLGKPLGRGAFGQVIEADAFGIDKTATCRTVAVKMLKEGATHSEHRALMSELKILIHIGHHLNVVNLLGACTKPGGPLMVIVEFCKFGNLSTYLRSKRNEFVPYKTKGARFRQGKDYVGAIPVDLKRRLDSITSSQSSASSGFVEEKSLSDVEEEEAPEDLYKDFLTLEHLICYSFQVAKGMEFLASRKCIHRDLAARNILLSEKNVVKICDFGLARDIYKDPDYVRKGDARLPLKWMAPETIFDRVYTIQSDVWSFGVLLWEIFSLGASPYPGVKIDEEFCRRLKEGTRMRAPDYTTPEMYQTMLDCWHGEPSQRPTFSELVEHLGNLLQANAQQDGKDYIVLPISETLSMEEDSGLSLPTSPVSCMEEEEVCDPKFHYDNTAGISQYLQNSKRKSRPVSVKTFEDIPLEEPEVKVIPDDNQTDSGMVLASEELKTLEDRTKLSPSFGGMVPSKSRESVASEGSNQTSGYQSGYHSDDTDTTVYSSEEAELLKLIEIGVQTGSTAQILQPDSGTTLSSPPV

Regarding `CC(C)(N)C(=O)N[C@@H](Cc1c[nH]cn1)C(=O)N[C@H](Cc1ccc2ccccc2c1)C(=O)N[C@H](Cc1ccccc1)C(=O)N[C@@H](CCCCN)C(N)=O` [Ipamorelin] (H-[Aib]H[d2Nal][dF]K-NH2), the terminal half-life result in series [1] (in humans) is “about 2 hours”.

Consider `NC(=O)CC[C@@H]1NC(=O)[C@H](Cc2ccccc2)NC(=O)[C@H](Cc2ccc(O)cc2)NC(=O)[C@@H](N)CSSC[C@@H](C(=O)N2CCC[C@H]2C(=O)N[C@@H](CCCN=C(N)N)C(=O)NCC(N)=O)NC(=O)[C@H](CC(N)=O)NC1=O` [vasopressin], for which the half-life in series [1] (in humans) was 0.167 to 0.583 h.

On to “C2: truncated KIF13B domain, residues 1221-1260, recombinant or lentivirus-expressed (FLAG-C2) (VKAEASWDSAVHGCPQLSRGTPVDERLFLIVRVTVQLSHP; not fully specified (N-terminus); also: FLAG tag; UniProt Q9NQT8 1221-1260, looked up, fragment)”, for which the VEGFR2 binding entry with VEGFR2 is recorded as “bind VEGFR2”. Also, in the series with HUVECs [2], the “VEGF-induced capillary network formation” value is reported as “significantly reduced”.

On to “DUF2A: residues 1111-1167 of KIF13B, recombinant protein (QKLVSKRDKTEDDADREAQLLEMRLTLTEERNAVMVPSAGSGIPGAPAEWTPVPGME; left off: small tags and cut ends)”, for which the VEGFR2 binding entry in the series with VEGFR2 is “failed to bind”.

Consider “DUF2B: residues 1168-1216 of KIF13B, recombinant protein (THIPVIFLDLNADDFSSQDNLDDPEAGGWDATLTGEEEEEFFELQIVKQ; left off: small tags and cut ends)”, for which the VEGFR2 binding result with VEGFR2 is reported as “failed to bind”.

As for “PQLSRGTPVDERLFLIVR (listed as Homo sapiens) [DUF2C9, KIF13B residues 1235-1252]”, the VEGFR2 binding result is given as “weakly bind VEGFR2” with VEGFR2 and “partial or unstable binding” with VEGFR2 (listed as C9). In addition, the “VEGF-induced capillary network formation” value in the series with HUVECs [2] was “did not significantly reduce”.

As for “SRGTPVDERLFLIVRVT (listed as Homo sapiens) [DUF2C6, KIF13B residues 1238-1254]”, the VEGFR2 binding entry with VEGFR2 is on record as “partial or unstable binding”.

Consider “TPVDERLFLIVRVTVQ (listed as Homo sapiens) [SEQ ID NO:3, Homo sapiens KAI peptide]”, for which, in the series with VEGFR2, the VEGFR2 binding result is “sufficient for VEGFR2 binding”.

Turning to “TPVDERLFLIVRVTVQLSHPADMQLVLRKR . . . QGF (listed as Homo sapiens) [DUF2C3, KIF13B residues 1241-1281]”, the VEGFR2 binding entry with VEGFR2 is recorded as “bind VEGFR2”. Further, the “VEGF-induced capillary network formation” value in the series with HUVECs [2] was “significantly reduced”.

For the molecule “VRVTVQLSHPADMQLVLR (listed as Homo sapiens) [DUF2C8, KIF13B residues 1251-1268]”, the values for the VEGFR2 binding entry with VEGFR2 and with VEGFR2 (listed as C8) were “weakly bind VEGFR2” and “partial or unstable binding”, respectively. Also, the “VEGF-induced capillary network formation” value in the series on HUVECs [2] was “did not significantly reduce”.

Regarding albiglutide, the half-life in series [1] (in humans) was 140 to 170 h.

On to peginesatide, for which the elimination half-life in series [1] (in healthy volunteers) is 18.9 h.

B1: DUF2: second DUF3694 domain, residues 1112-1281 of KIF13B (protein, UniProt Q9NQT8 1112-1281, looked up, fragment)
chain: KLVSKRDKTEDDADREAQLLEMRLTLTEERNAVMVPSAGSGIPGAPAEWTPVPGMETHIPVIFLDLNADDFSSQDNLDDPEAGGWDATLTGEEEEEFFELQIVKQHDGEVKAEASWDSAVHGCPQLSRGTPVDERLFLIVRVTVQLSHPADMQLVLRKRICVNVHGRQGF
Regarding B1, in series [3], the “number of vessels in MATRIGEL plug” value is recorded as “significantly reduced”. For the same molecule, in the series with HUVECs [4], the distance of invasion entry is recorded as “significantly reduced”, the “invasion of HUVECs into collagen gel” value is given as “significantly reduced”, the “number of lumen formed” value is “significantly reduced” and the “thickness of invading sprouts” value is reported as “not different among the groups”.

B2: DUF2C: residues 1217-1281 of KIF13B, recombinant protein (protein)
chain: HDGEVKAEASWDSAVHGCPQLSRGTPVDERLFLIVRVTVQLSHPADMQLVLRKRICVNVHGRQGF
modifications: left off: small tags and cut ends
notes: residues 1217-1281 of KIF13B, recombinant protein
Consider B2, for which the VEGFR2 binding entry in the series with VEGFR2 is recorded as “specifically binds”. In the series with HUVECs [4], the distance of invasion entry was “significantly reduced”, the “invasion of HUVECs into collagen gel” value was “significantly reduced”, the “number of lumen formed” value is “significantly reduced” and the “thickness of invading sprouts” value is “not different among the groups”. Moreover, the “VEGF-induced capillary network formation” value in the series with HUVECs [2] is “sufficient to reduce”.

B3: CT: C-terminus region of KIF13B (residues 1528 to 1826), negative control (protein, UniProt Q9NQT8 1528-1826, looked up, fragment)
chain: ICDKPAKVPSPPPVIAVTAVTPAPEAQDGPPSPLSEASSGYFSHSVSTATLSDALGPGLDAAAPPGSMPTAPEAEPEAPISHPPPPTAVPAEEPPGPQQLVSPGRERPDLEAPAPGSPFRVRRVRASELRSFSRMLAGDPGCSPGAEGNAPAPGAGGQALASDSEEADEVPEWLREGEFVTVGAHKTGVVRYVGPADFQEGTWVGVELDLPSGKNDGSIGGKQYFRCNPGYGLLVRPSRVRRATGPVRRRSTGLRLGAPEARRSATLSGSATNLASLTAALAKADRSHKNPENRKSWAS
On to B3, for which the VEGFR2 binding entry in the series with VEGFR2 was “does not bind”. In addition, in series [3], the “number of vessels in MATRIGEL plug” value is given as “no significant effect”. In addition, the “VEGF-induced capillary network formation” value in the series on HUVECs [2] is given as “formed capillary networks”.
